Laboratory results from patent publication US20120058906A1 (published 2012).

Tests used:
[1] = biological target: T1, Recombinant Human DLL4 (R&D Systems Cat#1506-D4/CF) (human, UniProt Q9NR61 27-524); test: MSD ECL multi-spot plate, antigen immobilized; Fab 200 nM; blank spot 588;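 further: blank spot per well as comparator with Hit at signal to blank ratio of 4 or more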
T1 construct: Purchased recombinant protein; also called delta-like protein 4

[2] = biological target: T2, rHuman EGF R/Fc Chimera, CF (R&D Systems Cat#344-ER) (human, UniProt P00533 25-645); test: as above
T2 construct: Purchased Fc chimera; not shown: Fc portion of the purchased chimera

[3] = biological target: T3, rHuman P-Cadherin/Fc Chimera, CF (R&D Systems Cat#861-PC) (human, UniProt P22223 108-654); test: as above
T3 construct: Purchased Fc chimera; not shown: Fc portion of the purchased chimera

[4] = biological target: T4, rHuman Notch-1/Fc Chimera, CF (R&D Systems Cat#3647-TK) (human, UniProt P46531 19-526); test: as above
T4 construct: Purchased Fc chimera; not shown: Fc portion of the purchased chimera

[5] = biological target: T5, rHuman ErbB2/Fc Chimera, CF (R&D Systems Cat#1129-ER) (human, UniProt P04626 23-652); test: as above
T5 construct: Purchased Fc chimera; also called HER2/neu; not shown: Fc portion of the purchased chimera

[6] = biological target: T6, rHuman CD44/Fc Chimera, CF (R&D Systems Cat#3660-CD) (human, UniProt P16070 21-220); test: as above
T6 construct: Purchased Fc chimera; not shown: Fc portion of the purchased chimera

[7] = biological target: T7, rHuman IGF-1 sR (IGF-1 sR), CF (R&D Systems Cat#391-GR) (human, UniProt P08069 31-932); test: as above
T7 construct: Purchased soluble receptor; also called insulin-like growth factor-1 soluble receptor; IGF-R1

[8] = biological target: T8, rHuman Erythropoietin R/Fc Chimera, CF (R&D Systems Cat#963-ER) (human, UniProt P19235 25-250); test: as above
T8 construct: Purchased Fc chimera; also called EPO R/Fc; Epo R; not shown: Fc portion of the purchased chimera
T8 sequence: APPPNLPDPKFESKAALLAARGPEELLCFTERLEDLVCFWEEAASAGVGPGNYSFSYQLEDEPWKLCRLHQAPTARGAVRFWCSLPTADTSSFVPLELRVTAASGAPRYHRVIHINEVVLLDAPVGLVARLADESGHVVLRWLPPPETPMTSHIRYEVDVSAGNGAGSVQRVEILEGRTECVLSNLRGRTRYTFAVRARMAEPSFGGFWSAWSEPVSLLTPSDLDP

[9] = biological target: T9, rHuman HGF R/c-MET/Fc Chimera, CF (R&D Systems Cat#358-MT/CF) (human, UniProt P08581 25-932); test: as above
T9 construct: Purchased Fc chimera; also called HGF R/Fc; not shown: Fc portion of the purchased chimera

[10] = biological target: T10, rHuman EGF R/Fc Chimera, CF (R&D Systems Cat#344-ER) (human, UniProt P00533 25-645); test: MSD ECL titration, Fab 2.3 nM, blank 234;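 further: blank spot per well as comparator with Hit at signal to blank ratio of 4 or more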
T10 construct: Bought Fc chimera; Fc part of the bought chimera not given

[11] = biological target: T11, rHuman Erythropoietin R/Fc Chimera, CF (R&D Systems Cat#963-ER) (human, UniProt P19235 25-250); test: MSD ECL titration, Fab 2.3 nM, blank 234;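 further: blank spot per well as comparator with Hit at signal to blank ratio of 4 or more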
T11 construct: Bought Fc chimera; also called EPO R/Fc; EPOR; Fc part of the bought chimera not given
T11 sequence: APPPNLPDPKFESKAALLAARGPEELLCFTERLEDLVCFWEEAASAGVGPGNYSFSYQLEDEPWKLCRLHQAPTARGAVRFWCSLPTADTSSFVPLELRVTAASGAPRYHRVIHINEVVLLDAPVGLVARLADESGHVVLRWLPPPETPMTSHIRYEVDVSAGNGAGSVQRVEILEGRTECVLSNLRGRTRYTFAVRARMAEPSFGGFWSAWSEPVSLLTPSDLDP

[12] = biological target: T12, rHuman P-Cadherin/Fc Chimera, CF (R&D Systems Cat#861-PC) (human, UniProt P22223 108-654); test: MSD ECL titration, Fab 2.3 nM, blank 234;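 further: blank spot per well as comparator with Hit at signal to blank ratio of 4 or more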
T12 construct: Bought Fc chimera; Fc part of the bought chimera not given

[13] = biological target: T13, rHuman CD44/Fc Chimera, CF (R&D Systems Cat#3660-CD) (human, UniProt P16070 21-220); test: MSD ECL titration, Fab 2.3 nM, blank 234
T13 construct: Bought Fc chimera; Fc part of the bought chimera not given

[14] = biological target: T14, rHuman CD44/Fc Chimera, CF (R&D Systems Cat#3660-CD) (human, UniProt P16070 21-220); test: ECL (MSD multi-spot), antigen on plate, Fab 50 nM
T14 construct: Bought Fc chimera; not shown: Fc of the bought chimera

[15] = biological target: T15, rHuman ErbB2/Fc Chimera, CF (R&D Systems Cat#1129-ER) (human, UniProt P04626 23-652); test: ECL (MSD multi-spot), antigen on plate, Fab 50 nM
T15 construct: Bought Fc chimera; also called HER2/neu; not shown: Fc of the bought chimera

[16] = biological target: T16, Recombinant Human DLL4 (R&D Systems Cat#1506-D4/CF) (human, UniProt Q9NR61 27-524); test: ECL (MSD multi-spot), antigen on plate, Fab 50 nM
T16 construct: Bought recombinant protein; also called delta-like protein 4

[17] = biological target: T17, rHuman Notch-1/Fc Chimera, CF (R&D Systems Cat#3647-TK) (human, UniProt P46531 19-526); test: ECL (MSD multi-spot), antigen on plate, Fab 50 nM
T17 construct: Bought Fc chimera; not shown: Fc of the bought chimera

[18] = biological target: T18, rHuman HGF R/c-MET/Fc Chimera, CF (R&D Systems Cat#358-MT/CF) (human, UniProt P08581 25-932); test: ECL (MSD multi-spot), antigen on plate, Fab 50 nM
T18 construct: Bought Fc chimera; also called HGF R/Fc; not shown: Fc of the bought chimera

[19] = biological target: T19, rHuman IGF-1 sR (insulin-like growth factor-1 soluble receptor), CF (R&D Systems Cat#391-GR) (human, UniProt P08069 31-932); test: ECL (MSD multi-spot), antigen on plate, Fab 50 nM
T19 construct: Bought soluble receptor; also called IGF-R1

B1: Fab VH5-51_IGHD5-18*01>3_IGHJ4*01_G100K & V3-4_IGLJ1*01 (Fab, V domains shown)
VH: EVQLVQSGAEVKKPGESLKISCKGSGYSFTSYWIGWVRQMPGKGLEWMGIIYPGDSDTRYSPSFQGQVTISADKSISTAYLQWSSLKASDTAMYYCARRKYSYGYDYFDYWGQGTLVTVSS
VL: QTVVTQEPSFSVSPGGTVTLTCGLSSGSVSTSYYPSWYQQTPGQAPRTLIYSTNTRSSGVPDRFSGSILGNKAALTITGAQADDESDYYCVLYMGSGISYVFGTGTKVTVL
notes: It was expressed as a Fab: CH1 with tags from Plasmid A and lambda CL from Plasmid E; also called Fab No. 22
For B1, the ECL signal [1] was 45400 ECL signal, the ECL signal [2] was 1370 ECL signal and the ECL signal [3] was 1130 ECL signal. It also gave an ECL signal [4] of 1250 ECL signal, an ECL signal [5] of 1470 ECL signal and an ECL signal [6] of 1160 ECL signal. The ECL signal [7] was 1320 ECL signal, the ECL signal [8] was 1230 ECL signal and the ECL signal [9] was 1430 ECL signal.

B2: Fab VH1-46_IGHD6-6*01_IGHJ1*01 & L6_IGKJ1*01 (Fab, V domains shown)
VH: QVQLVQSGAEVKKPGASVKVSCKASGYTFTSYYMHWVRQAPGQGLEWMGIINPSGGSTSYAQKFQGRVTMTRDTSTSTVYMELSSLRSEDTAVYYCAREEYSSSSAEYFQHWGQGTLVTVSS
VL: not shown
notes: Expressed in E. coli as Fab: heavy chain with CH1 plus Flag and His tags from Plasmid A, kappa light chain constant region from Plasmid C; also called Fab No. 1
In the case of B2, the ECL signal [10] is reported as 289, the ECL signal [11] is reported as 429 and the ECL signal [12] is reported as 401. It also gave an ECL signal [13] of 317.

B3: Fab VH1-46_IGHD6-6*01_IGHJ1*01_S102A_S103P_S104Y_H111Y & L6_IGKJ1*01 (Fab, V domains shown)
VH: QVQLVQSGAEVKKPGASVKVSCKASGYTFTSYYMHWVRQAPGQGLEWMGIINPSGGSTSYAQKFQGRVTMTRDTSTSTVYMELSSLRSEDTAVYYCAREEYAPYSAEYFQYWGQGTLVTVSS
VL: not shown
notes: Fab made in E. coli; The heavy chain also carries CH1 with Flag and His tags from Plasmid A, and the light chain carries kappa CL from Plasmid C
B3 gave an ECL signal [14] of 345 ECL signal, an ECL signal [15] of 470 ECL signal and an ECL signal [16] of 201000 ECL signal. It also gave an ECL signal [17] of 389 ECL signal, an ECL signal [18] of 312 ECL signal and an ECL signal [19] of 399 ECL signal.
